# Experimental data: patent US20230355734A1 (VIRGINIA COMMONWEALTH UNIVERSITY, published 2023)
# B1: FhbB-ch5 pentavalent chimeric (FhbB135405-FhbB2SP50-FhbB333521-FhbB335404-FhbB3SP64, mutated) (other)
# chain: TFKMNTAQKAHYEKFINALENALKTRHIPAGAVIDMLAEINTEALALDYQIVDKKPGTSIAQGTKAAALRKRFIPKKIKAFKMNTAQKAHYEAFIKVLEKAAERNPIDAQVVVEALGAVNIDALAKNLNYQVIDKKPGTDIATGTKAAELRKRFVPKKIKAFKMNTAQKAHYEAFISGLENAVKDNPMTAQNVKEGLDLANVGAAALNFKIVDKKAGTEIAKGTKAAELRKRFVPKKKAFKMNTAQNAHYEAFISGLERGAKDNPMLAQVVKAGLDLANDGAAALNYKIVDKKPGTDIAKGTKAAELRKRFIPKKIKTFKMNTAQKAHYEAFIADLERAAKDNPMPAHIVKAGLDAANAIAATLNFKIVDKKAGTEIAKGTKAAELRKRFVPKKK
# notes: purified on nickel; not shown: N-terminal hexa-histidine tag from vector pET46-Ek LIC
# B2: FhbB3SP64E45A/D58A (receptor)
# chain: FKMNTAQKAHYEAFIADLERAAKDNPMPAHIVKAGLDAANAIAATLNFKIVDKKAGTEIAKGTKAAELRKRFVPKKK
# notes: also called FhbBSP64E45A/D58A; FhbB3SP64 mutant; not shown: N-terminal hexa-histidine tag from vector pET46-Ek LIC
# B3: FhbB3 of strain 35404, E45A or D58A site-directed mutant (receptor)
# chain: FKMNTAQNAHYEAFISGLERGAKDNPMLAQVVKAGLDLANDGAAALNYKIVDKKPGTDIAKGTKAAELRKRFIPKKIKT
# notes: also called FhbB335404 mutant; not shown: N-terminal hexa-histidine tag from vector pET46-Ek LIC
# B4: FhbB3 of strain 33521, E45A or D58A site-directed mutant (receptor)
# chain: FKMNTAQKAHYEAFISGLENAVKDNPMTAQNVKEGLDLANVGAAALNFKIVDKKAGTEIAKGTKAAELRKRFVPKKKA
# notes: also called FhbB333521 mutant; not shown: N-terminal hexa-histidine tag from vector pET46-Ek LIC
# B5: FhbB2 of strain SP50, E45A or D58A site-directed mutant (receptor)
# chain: FKMNTAQKAHYEAFIKVLEKAAERNPIDAQVVVEALGAVNIDALAKNLNYQVIDKKPGTDIATGTKAAELRKRFVPKKIKA
# notes: also called FhbB2SP50 mutant; not shown: N-terminal hexa-histidine tag from vector pET46-Ek LIC
# B6: FhbB-ch4 tetravalent chimeric (FhbB135405-FhbB2SP50-FhbB333521-FhbB335404, mutated) (other)
# chain: TFKMNTAQKAHYEKFINALENALKTRHIPAGAVIDMLAEINTEALALDYQIVDKKPGTSIAQGTKAAALRKRFIPKKIKAFKMNTAQKAHYEAFIKVLEKAAERNPIDAQVVVEALGAVNIDALAKNLNYQVIDKKPGTDIATGTKAAELRKRFVPKKIKAFKMNTAQKAHYEAFISGLENAVKDNPMTAQNVKEGLDLANVGAAALNFKIVDKKAGTEIAKGTKAAELRKRFVPKKKAFKMNTAQNAHYEAFISGLERGAKDNPMLAQVVKAGLDLANDGAAALNYKIVDKKPGTDIAKGTKAAELRKRFIPKKIK
# notes: purified on nickel; also called Fhb-ch4; not shown: N-terminal hexa-histidine tag from vector pET46-Ek LIC
# B7: FhbB1 of strain 35405, E45A site-directed mutant (receptor)
# chain: TFKMNTAQKAHYEKFINALENALKTRHIPAGAVIDMLAEINTEALALDYQIVDKKPGTSIAQGTKAAALRKRFIPKKIKA
# notes: also called FhbB135405 mutant; not shown: N-terminal hexa-histidine tag from vector pET46-Ek LIC
# Target: T1, human Factor H (human, UniProt P08603 19-1231)
# T1 construct: Purified human FH bought from CompTech; added in solution at 10 ug/mL in the ELISA and 40 ug/mL in the cleavage assay; also called FH; human FH
# T1 sequence (P08603 19-1231 limits assumed): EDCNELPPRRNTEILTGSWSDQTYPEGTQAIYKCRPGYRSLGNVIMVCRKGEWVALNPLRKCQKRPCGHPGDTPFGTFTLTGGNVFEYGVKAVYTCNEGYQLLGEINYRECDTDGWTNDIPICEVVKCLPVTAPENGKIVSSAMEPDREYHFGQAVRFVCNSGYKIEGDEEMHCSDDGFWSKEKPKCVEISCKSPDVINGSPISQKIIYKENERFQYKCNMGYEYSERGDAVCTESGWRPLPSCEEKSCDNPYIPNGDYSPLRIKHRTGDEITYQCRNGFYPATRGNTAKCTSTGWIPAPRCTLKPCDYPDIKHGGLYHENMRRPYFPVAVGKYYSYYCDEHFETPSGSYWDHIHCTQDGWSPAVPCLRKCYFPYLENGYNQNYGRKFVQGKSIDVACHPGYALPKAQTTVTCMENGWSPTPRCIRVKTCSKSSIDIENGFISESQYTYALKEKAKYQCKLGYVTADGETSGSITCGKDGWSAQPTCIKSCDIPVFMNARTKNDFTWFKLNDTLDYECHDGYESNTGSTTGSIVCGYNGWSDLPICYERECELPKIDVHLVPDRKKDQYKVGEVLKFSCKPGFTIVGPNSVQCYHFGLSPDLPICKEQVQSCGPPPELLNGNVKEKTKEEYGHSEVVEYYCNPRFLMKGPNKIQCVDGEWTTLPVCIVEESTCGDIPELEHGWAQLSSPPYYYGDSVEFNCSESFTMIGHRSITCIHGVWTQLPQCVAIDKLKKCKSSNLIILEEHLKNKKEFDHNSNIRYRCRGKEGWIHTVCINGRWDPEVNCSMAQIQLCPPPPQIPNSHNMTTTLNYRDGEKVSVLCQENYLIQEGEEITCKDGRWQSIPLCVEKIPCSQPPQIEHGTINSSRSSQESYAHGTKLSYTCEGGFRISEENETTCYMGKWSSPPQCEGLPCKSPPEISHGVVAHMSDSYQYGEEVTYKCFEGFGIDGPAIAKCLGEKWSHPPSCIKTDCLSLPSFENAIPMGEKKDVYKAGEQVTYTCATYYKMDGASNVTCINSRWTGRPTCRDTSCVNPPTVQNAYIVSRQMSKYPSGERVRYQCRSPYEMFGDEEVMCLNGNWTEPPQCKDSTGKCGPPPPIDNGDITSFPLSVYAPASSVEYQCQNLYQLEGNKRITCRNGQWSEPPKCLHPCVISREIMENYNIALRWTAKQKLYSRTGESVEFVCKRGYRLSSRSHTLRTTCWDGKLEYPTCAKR
# Assay: ELISA, immobilized recombinant protein, human FH 10 ug/mL
row,Binder,binding result
1,B1,binds
2,B2,binds

# Target: T1, human Factor H
# Assay: ELISA, immobilized recombinant protein, FH in solution
row,Binder,binding result
1,B3,no binding (tested: 10 µg mL^-1 human FH)
2,B4,no binding (tested: 10 µg mL^-1 human FH)
3,B5,no binding (tested: 10 µg mL^-1 human FH)
4,B6,no binding (tested: 10 µg mL^-1 human FH)
5,B7,no binding (tested: 10 µg mL^-1 human FH)
